Test results published in patent US20120219551A1.
Where “and” joins values, the source holds several entries; their conditions need not be identical. Equal values may be shown once.

Tests used:
[1] = biological target: soluble dimeric FcγRIIB-Fc fusion protein (extracellular domain of FcγRIIB fused to hinge-CH2-CH3 of human IgG2) (human) (UniProt P31994); assay: ELISA
[2] = biological target: soluble monomeric FcγRIIIA (extracellular region of FcγRIIIA joined to the linker-AVITAG sequence) (human) (UniProt P08637); assay: ELISA
Sequence of soluble monomeric FcγRIIIA (extracellular region of FcγRIIIA joined to the linker-AVITAG sequence) (human) (P08637 17-208): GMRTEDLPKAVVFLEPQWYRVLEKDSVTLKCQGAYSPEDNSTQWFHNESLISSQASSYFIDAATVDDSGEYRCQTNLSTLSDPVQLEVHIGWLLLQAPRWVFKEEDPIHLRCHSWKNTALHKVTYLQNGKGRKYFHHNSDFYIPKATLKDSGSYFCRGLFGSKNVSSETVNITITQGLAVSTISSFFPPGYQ

[3] = biological target: FcγRIIIA on natural killer cells of human donor PBMC (human) (UniProt P08637); assay: cell-based or functional assay
Sequence of FcγRIIIA on natural killer cells of human donor PBMC (human) (P08637 17-254): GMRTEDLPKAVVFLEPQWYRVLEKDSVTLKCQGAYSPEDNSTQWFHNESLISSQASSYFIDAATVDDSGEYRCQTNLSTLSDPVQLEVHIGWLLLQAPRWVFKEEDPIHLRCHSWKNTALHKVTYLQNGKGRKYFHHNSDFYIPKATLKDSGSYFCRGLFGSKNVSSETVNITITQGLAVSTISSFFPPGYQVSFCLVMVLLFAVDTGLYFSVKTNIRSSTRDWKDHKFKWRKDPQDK

[4] = biological target: soluble dimeric FcγRIIB-Fc fusion protein (extracellular domain of FcγRIIB fused to hinge-CH2-CH3 of human IgG2) (human) (UniProt P31994); assay: SPR (BIAcore), Ab captured on BSA-FITC, separate fit 200/800 nM
[5] = biological target: soluble monomeric FcγRIIIA (extracellular region of FcγRIIIA joined to the linker-AVITAG sequence) (human) (UniProt P08637); assay: as above
[6] = biological target: FcγRIIB (CD32B) (human) (UniProt P31994); assay: BIAcore (as Table 27); cells shifted one column to the left
Sequence of FcγRIIB (CD32B) (human) (P31994 43-217 limits assumed): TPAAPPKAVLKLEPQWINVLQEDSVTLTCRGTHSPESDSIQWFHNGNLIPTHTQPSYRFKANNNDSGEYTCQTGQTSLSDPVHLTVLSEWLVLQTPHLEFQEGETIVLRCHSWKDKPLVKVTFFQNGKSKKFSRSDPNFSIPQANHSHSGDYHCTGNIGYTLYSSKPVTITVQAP

[7] = biological target: FcγRIIB (CD32B) (human) (UniProt P31994); assay: BIAcore
[8] = biological target: FcγRIIIA (CD16A), V158 allotype (human) (UniProt P08637); assay: BIAcore
Sequence of FcγRIIIA (CD16A), V158 allotype (human) (P08637 17-208 F176V limits assumed): as the sequence (P08637 17-208) above, with F160V counted along it

[9] = biological target: FcγRIIIA (CD16A), F158 allotype (human) (UniProt P08637); assay: BIAcore
Sequence of FcγRIIIA (CD16A), F158 allotype (human) (P08637 17-208 limits assumed): as the sequence (P08637 17-208) above

[10] = biological target: FcγRIIA (CD32A), H131 allotype (human) (UniProt P12318); assay: BIAcore
Sequence of FcγRIIA (CD32A), H131 allotype (human) (P12318 34-217 limits assumed): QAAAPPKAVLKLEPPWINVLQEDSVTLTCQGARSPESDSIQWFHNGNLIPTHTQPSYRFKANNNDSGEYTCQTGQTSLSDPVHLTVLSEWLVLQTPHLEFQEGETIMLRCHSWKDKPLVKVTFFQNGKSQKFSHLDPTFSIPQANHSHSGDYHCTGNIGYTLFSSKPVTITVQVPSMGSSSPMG

[11] = biological target: FcγRIIB (CD32B) (human) (UniProt P31994); assay: BIAcore (as Table 27)
[12] = biological target: FcγRIIIA (CD16A), V158 allotype (human) (UniProt P08637); assay: BIAcore (as Table 27)
[13] = biological target: FcγRIIIA (CD16A), F158 allotype (human) (UniProt P08637); assay: BIAcore (as Table 27)
[14] = biological target: FcγRIIB (CD32B) (human) (UniProt P31994); assay: not stated; human FcRs
[15] = biological target: FcγRIIIA (CD16A), V158 allotype (human) (UniProt P08637); assay: not stated; human FcRs
[16] = biological target: FcγRIIIA (CD16A), F158 allotype (human) (UniProt P08637); assay: not stated; human FcRs
[17] = biological target: FcγRIIA (CD32A), H131 allotype (human) (UniProt P12318); assay: not stated; human FcRs
[18] = biological target: 2bFcagl (FcγRIIB-Fc fusion) (human) (UniProt P31994)
Sequence of 2bFcagl (FcγRIIB-Fc fusion) (human) (P31994 43-217): as the sequence (P31994 43-217 limits assumed) above

[19] = biological target: 2aRFcagl (FcγRIIA 131R-Fc fusion) (human) (UniProt P12318)
Sequence of 2aRFcagl (FcγRIIA 131R-Fc fusion) (human) (P12318 34-217 H167R): as the sequence (P12318 34-217 limits assumed) above, with H134R counted along it

[20] = biological target: FcγRIIIA (CD16A), V158 allotype (human) (UniProt P08637)
[21] = biological target: 2aHFcagl (FcγRIIA 131H-Fc fusion) (human) (UniProt P12318)
Sequence of 2aHFcagl (FcγRIIA 131H-Fc fusion) (human) (P12318 34-217): as the sequence (P12318 34-217 limits assumed) above

[22] = biological target: FcγRIIIA (CD16A), F158 allotype (human) (UniProt P08637)

Sequence of soluble dimeric FcγRIIB-Fc fusion protein (extracellular domain of FcγRIIB fused to hinge-CH2-CH3 of human IgG2) (human) (P31994 43-217): as the sequence (P31994 43-217 limits assumed) above

Row | ELISA, OD [2] | Koff WT/Koff mutant [7] | Koff WT/Koff mutant [8] | Koff WT/Koff mutant [9] | Koff WT/Koff mutant [10] | Koff WT/Koff mutant [11] | Koff WT/Koff mutant [12] | fold change vs wild-type affinity [14] | fold change vs wild-type affinity [15] | fold change vs wild-type affinity [16] | fold change vs wild-type affinity [17] | Substance | ADCC, % [3] | also measured
1 | 1 OD | – | – | – | – | – | – | – | – | – | – | ch4-4-20 Mut16 (F372Y) (antibody) | 15% | ELISA, OD [1]: 1.55 OD; Kd [5]: 84.8 nM
2 | 1.25 OD | – | – | – | – | – | – | – | – | – | – | ch4-4-20 Mut23 (K334E, R292L) (antibody) | 25% | ELISA, OD [1]: 0.1 OD; Kd [4]: 108 nM; koff [4]: 0.107 s⁻¹; Kd [5]: 70.2 nM; koff [5]: 0.105 s⁻¹; kon [5]: 1.43e+06 M⁻¹ s⁻¹
3 | – | – | 2.56 | 1.43 | 0.23 | – | 2.56 | -13.3 fold | 1.6 fold | 0.4 fold | -3.3 fold | immunoglobulin with Fc variant F243L, R292P, V305I (antibody) | – | Koff WT/Koff mutant [13]: 1.43
4 | – | – | – | – | – | – | – | -2.5 fold | 0.6 fold | 0.1 fold | -3.3 fold | immunoglobulin with Fc variant S298A, E333A, K334A (control AAA) (antibody) | – | –
5 | – | 1.18 | 1.01 | 1.17 | 1.86 | 1.18 | 1.01 | 0.2 fold | 0 fold | 0.2 fold | 1.9 fold | immunoglobulin with Fc variant Y300L (antibody) | – | –

Further lines, the substance ahead of its results:

Row | Substance | ELISA, OD [2] | Koff WT/Koff mutant [7] | Koff WT/Koff mutant [8] | Koff WT/Koff mutant [9] | Koff WT/Koff mutant [10] | Koff WT/Koff mutant [11] | Koff WT/Koff mutant [12] | fold change vs wild-type affinity [14] | fold change vs wild-type affinity [15] | fold change vs wild-type affinity [16] | fold change vs wild-type affinity [17] | ADCC, % [3] | also measured
6 | ch4-4-20 Mut14 (K288M, K334E) (antibody) | 1.1 OD | – | – | – | – | – | – | – | – | – | – | 28% | ELISA, OD [1]: 0.13 OD; Kd [4]: 95.6 nM; koff [4]: 0.089 s⁻¹; Kd [5]: 75.4 nM; koff [5]: 0.1 s⁻¹; kon [5]: 1.37e+06 M⁻¹ s⁻¹
7 | ch4-4-20 Mut18 (K326E) (antibody) | 1 OD | – | – | – | – | – | – | – | – | – | – | 28% | ELISA, OD [1]: 1.25 OD; Kd [4]: 51.7 nM; koff [4]: 0.043 s⁻¹; Kd [5]: 92 nM; koff [5]: 0.112 s⁻¹; kon [5]: 1.23e+06 M⁻¹ s⁻¹
8 | ch4-4-20 Mut19 (K334N, K246I) (antibody) | 0.75 OD | – | – | – | – | – | – | – | – | – | – | 11% | Kd [4]: 45.3 nM
9 | immunoglobulin with Fc variant D270E, G316D, P396L, R416G (antibody) | – | 1.07 | 1.22 | 0.94 | 0.95 | 1.07 | 1.22 | – | – | – | – | – | Koff WT/Koff mutant [6]: 1.07
10 | immunoglobulin with Fc variant D270E, G316D, R416G (antibody) | – | 0.78 | 2.18 | 2.49 | 1.95 | 0.78 | 2.18 | -1.7 fold | 0.4 fold | 0.1 fold | 0.4 fold | – | Koff WT/Koff mutant [13]: 2.49
11 | immunoglobulin with Fc variant F243L, R292P (antibody) | – | 0.12 and 0.16 | 4.73 and 4 | 0.6 and 1.67 | 0.34 and 0.52 | 0.12 and 0.16 | 4.73 and 4 | -5.3 fold | 3 fold | 0.7 fold | -0.9 fold | – | Koff WT/Koff mutant [6]: 0.12; Koff WT/Koff mutant [13]: 1.67
12 | immunoglobulin with Fc variant L234F, F243L, R292P, Y300L (antibody) | – | – | – | – | – | – | – | – | – | – | – | – | binding relative to wt (wt = 1) [18]: 0.2; binding relative to wt (wt = 1) [19]: 0.2; binding relative to wt (wt = 1) [20]: 1.7; binding relative to wt (wt = 1) [21]: 0.3; binding relative to wt (wt = 1) [22]: 1.6
13 | immunoglobulin with Fc variant L235I, F243L, R292P, Y300L (antibody) | – | – | – | – | – | – | – | – | – | – | – | – | binding relative to wt (wt = 1) [18]: 0.2; binding relative to wt (wt = 1) [19]: 0.1; binding relative to wt (wt = 1) [20]: 2.6; binding relative to wt (wt = 1) [21]: 0.5; binding relative to wt (wt = 1) [22]: 3.3
14 | immunoglobulin with Fc variant L235Q, F243L, R292P, Y300L (antibody) | – | – | – | – | – | – | – | – | – | – | – | – | binding relative to wt (wt = 1) [20]: 1.8; binding relative to wt (wt = 1) [21]: 0.2
15 | immunoglobulin with Fc variant P396L (antibody) | – | 2.58 | 1.27 | 1.73 | 1.63 | 2.58 | 1.27 | 1.6 fold | 0.3 fold | 0.7 fold | 0.6 fold | – | Koff WT/Koff mutant [13]: 1.73
16 | immunoglobulin with Fc variant S239D, A330L, I332E (control XmAb) (antibody) | – | – | – | – | – | – | – | 0.74 fold | 13.9 fold | 8.1 fold | 0 fold | – | –
